In patent US20030144176:

B1: HA-tagged activated MEK5 (MEK5DD), MEK5β splice isoform with aspartate substitutions of serine-222 and threonine-226 (protein)
chain: MEQQVNGQLIEPLQIFPRACKPPGERNIHGLKVNTRAGPSQHTSPVVSDSLPSNSLKKSSAELRKILANGQMNEQDIRYRDTLGHGNGGTVYKAYHVPSGKILAVKVILLDITLELQKQIMSELEILYKCDSSYIIGFYGAFFVENRISICTEFMDGGSLDVYRKIPEHVLGRIAVAVVKGLTYLWSLKILHRDVKPSNMLVNTSGQVKLCDFGVSTQLVNDIAKDYVGTNAYMAPERISGEQYGIHSDVWSLGISFMELALGRFPYPQIQKNQGSLMPLQLLQCIVDEDSPVLPLGEFSEPFVHFITQCMRKQPKERPAPEELMGHPFIVQFNDGNATVVSMWVCRALEERRSQQGPP
B2: HA-tagged wild-type MEK5 (MEK5WT), MEK5β splice isoform (protein)
chain: MEQQVNGQLIEPLQIFPRACKPPGERNIHGLKVNTRAGPSQHTSPVVSDSLPSNSLKKSSAELRKILANGQMNEQDIRYRDTLGHGNGGTVYKAYHVPSGKILAVKVILLDITLELQKQIMSELEILYKCDSSYIIGFYGAFFVENRISICTEFMDGGSLDVYRKIPEHVLGRIAVAVVKGLTYLWSLKILHRDVKPSNMLVNTSGQVKLCDFGVSTQLVNSIAKTYVGTNAYMAPERISGEQYGIHSDVWSLGISFMELALGRFPYPQIQKNQGSLMPLQLLQCIVDEDSPVLPLGEFSEPFVHFITQCMRKQPKERPAPEELMGHPFIVQFNDGNATVVSMWVCRALEERRSQQGPP
B3: endogenous ERK5 immunoprecipitated from neonatal rat cardiomyocytes (protein)
chain: AEPLKEEDGEDGSGEPPGRVKAEPVHTAASVVAKNLALLKARSFDVTFDVGDEYEIIETIGNGAYGVVSSARRRLTGQQVAIKKIPNAFDVVTNAKRTLRELKILKHFKHDNIIAIKDILRPTVPYGEFRSVYVVLDLMESDLHQIIHSSQPLTLEHVRYFLYQLLRGLKYMHSAQVIHRDLKPSNLLVNENCELKIGDFGMARGLCTSPAEHQYFMTEYVATRWYRAPELMLSLHEYTQAIDLWSVGCIFGEMLARRQLFPGKNYVHQLQLIMMVLGTPSPAVIQAVGAERVRAYIQSLPPRQPVPWETVYPGADRQALSLLGRMLRFEPSARISAAAALRHPFLAKYHDPDDEPDCAPPFDFAFDREALTRERIKEAIVAEIEDFHARREGIRQQIRFQPSLQPVASEPVCPDVEMPSPWAPSGDCAMESPPPALPPCSGPAPDTVDLTLQPAPPASELAPPKREGAISDNTKAALKAALLKSLRSRLRDGPSAPLEAPEPRKPVTAQERQREREEKRRRRQERAKEREKRRQERERKERGAGTLGGPSTDPLAGLVLSDNDRSLLERWTRMARPPVPAPAPAPAPTPKPSSAQPTSPPNGPVSQSTAPLQPAGSIPGPASQPVCPPPGPVPQPAGPVPAPLQTAPSTSLLASQSLVPPSGLPGSGAPEVLPYFPSGPPPPDPGLTPQPSTSESPDVNLVTQQLSKSQVEDPLPPVFSGTPKGSGAGYGVGFDLEEFLNQSFDMGVADGPQDGQADSASLSASLLADWLEGHGMNPADIESLQREIQMDSPMLLSDLPDLQEP

Key:
[1] = target: GST-ERK5KMΔ, a truncated, catalytically inactive form of ERK5 with lysine-83 mutated to methionine, fused to glutathione-S-transferase
[2] = target: glutathione-S-transferase (GST) fused to MEF2C amino acids 204-321

Protein	IP kinase assay: 32P phosphorylation of GST-ERK5KM substrate by immunoprecipitated HA-MEK5 [1]	ERK5 immunoprecipitation (IP) kinase assay: 32P phosphorylation of GST-MEF2C [2]
B1	AdMEK5DD produced a constitutively active kinase	–
B2	Some kinase activity was also observed with the AdMEK5WT virus	–
B3	–	Phosphorylation of GST-MEF2C indicated that ERK5 was activated 2-4 fold by hypertrophic agents
